Experimental data: the supplement of paper PMC10567573

B1: CHCHD6 (parent)
chain: MYKLSSEQFHEAASKMESTIKPRR

Variants of: B1
Assay: protein stability index of a GFP-peptide fusion (GPS, HEK-293T) (PSI 1-6); higher = more stable
Settings: c terminus: a fixed tail appended
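Further: lentivirally expressed fusions sorted by FACS into six bins by GFP to DsRed ratio, PSI derived from sequencing read proportions per bin multiplied by bin number.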

Protein stability index: each site, then its substitutions
S18: P 3.8, D 4.24, T 4.1, M 3.31, N 3.97, Q 3.47, E 3.71, A 4.41, L 3.4, F 2.78, C 3.99, I 2.68, K 3.58, H 4.51
E17: Q 3.71, R 3.29, M 3.55, S 3.71, N 3.57, W 2.4, K 2.73, L 3.08, H 2.92, D 4, T 3.19, I 3.85, G 4.03, A 3.24, P 3.15, Y 3
K21: E 4.33, D 3.69, H 3.86, F 3, Q 3.22, I 3.44, W 2.48, L 3.04, G 3.5, Y 2.33, V 3.61, M 3.09, N 3.89
R24: Q 3.65, C 3.1, A 3.91, T 4.12, F 3.06, V 3.06, L 3.31, I 2.86, P 3.7, W 2.56, M 3.86, N 4.18, E 3.74, G 3.39
K3: T 3.73, L 2.66, P 4.17, H 3.98, R 3.6, M 3.7, D 3.84, W 2.94, Q 4.17, F 2.55, N 3.68, Y 3.08, C 3.63, S 2.47, A 4.56, I 2.59, V 2.7
M1: C 3.59, V 4.03, A 3.87, F 3.7, P 4.36, W 3.36, R 4.33, T 4.12, S 4, I 3.41, Q 4.24, N 4.37
S5: F 2.82, C 3.14, D 4.06, K 3.56, L 3.02, Q 3.78, W 3.17, G 4.68, Y 2.72, A 4.02, R 3.94, M 3.87, P 3.17
E7: C 3.29, M 2.97, F 3.1, L 3.71, G 4.39, H 3.44, D 3.7, W 2.56, Y 2.82, T 3.2, N 3.58, S 3.79, R 2.96, A 3.6, V 3.44, P 3.64, Q 3.58
L4: C 3.29, Q 4.32, D 4.53, F 3.5, V 3.74, N 4.23, M 4.27, R 4.24, P 4.61, K 4.49, W 3.77, Y 3.53, A 4.69, T 3.81, S 4.06
R23: H 3.96, M 3.65, T 3.31, D 4.44, Q 3.12, S 3.7, I 3.05, A 3.99, K 4.11, V 3.16, P 3.78, L 2.91, W 2.54
P22: L 3.92, N 3.46, W 2.58, E 3.93, D 4.26, C 4.05, Y 3, V 3.6, K 3.8, A 3.46
S6: P 3.78, W 2.62, E 3.53, A 3.64, R 3.39, Q 4.25, Y 3.39, K 3.93, G 4.26, H 3.53, F 3.46, D 4.03, M 3.74, N 4.23, L 3.03, T 4.18, V 3.1
K15: L 3.73, N 4.42, E 4.42, C 3.54, I 3.67, T 4.37, Q 4.74, M 3.84, G 3.82, W 3.73, V 4.2, A 3.49, H 3.75
Y2: N 4.51, D 4.83, E 4.42, L 4.34, A 4.55, I 3.98, K 4.7, P 4.77, T 3.29, W 2.58, S 4.5, H 4.44, R 4.7, Q 4.25, C 3.53
I20: P 4.56, A 4.38, K 4.05, L 3.23, N 3.56, S 4.21, Q 3.82, C 4.01, T 4.25, F 3.51
Q8: F 2.65, Y 2.94, N 3.86, D 3.73, P 4.39, W 2.5, V 3.49, G 3.35, H 3.22, I 2.84, L 3.22, E 3.75
H10: I 3.08, E 4.24, C 3.93, Q 3.98, G 4.28, L 3.69, T 3.3, N 3.41, D 4.15, M 3.37, W 2.54, F 3.44, P 4.08, A 3.66, R 3.82
S14: I 2.86, M 3.47, Y 2.83, F 3.05, W 3.18, H 3.9, C 3.29, V 4.11, L 3.1, E 4.12, R 3.48, G 3.87, Q 4.24, N 3.78, P 3.82, K 3.68
T19: M 3.72, V 3.82, E 3.89, R 3.88, K 3.77, D 3.49, P 3.68, S 3.82, N 4, Y 3.4, C 3.67, A 3.78, Q 4.09, F 3.63
F9: K 4.58, M 4.28, N 4.64, H 4.32, Y 3.98, V 3.36, E 4.43, R 4.25, D 4.82, A 4.03, L 3.36, S 4.81, I 4.06, Q 4.12
A13: E 4.33, I 2.93, P 3.81, F 2.88, L 3.09, N 4.24, M 2.59, Q 3.61, D 4.25, H 3.9, W 2.95, K 3.86, V 4.02, T 4.02, R 3.66
E11: K 3.69, S 3.37, H 3.22, A 2.99, I 3.34, F 2.65, L 3.26, D 3.65, V 3.4, P 3.6, C 3.06, R 3.35
M16: V 4.46, S 4.16, W 3.41, A 4.17, C 3.58, T 4.34, G 3.77, R 3.94, L 3.41, H 4.44, D 4.09, I 3.53, Y 3.45
A12: R 3.55, K 3.59, G 3.69, D 4.17, S 3.97, F 3.27, Y 3.39, I 2.88, M 3.14, H 4.12, C 3.31, L 2.92, T 3.75, V 3.58
